Measurements from US20250368734A1 (ANTENGENE BIOLOGICS, published 2025).
Changes are numbered by the printed parent chain.

T1: mouse GPRC5D (mouse, UniProt Q9JIL6 1-344)
T1 construct: whole, on cells; HEK293T-mGPRC5D cells; also called mGPRC5D; murine GPRC5D
T1 sequence (looked up): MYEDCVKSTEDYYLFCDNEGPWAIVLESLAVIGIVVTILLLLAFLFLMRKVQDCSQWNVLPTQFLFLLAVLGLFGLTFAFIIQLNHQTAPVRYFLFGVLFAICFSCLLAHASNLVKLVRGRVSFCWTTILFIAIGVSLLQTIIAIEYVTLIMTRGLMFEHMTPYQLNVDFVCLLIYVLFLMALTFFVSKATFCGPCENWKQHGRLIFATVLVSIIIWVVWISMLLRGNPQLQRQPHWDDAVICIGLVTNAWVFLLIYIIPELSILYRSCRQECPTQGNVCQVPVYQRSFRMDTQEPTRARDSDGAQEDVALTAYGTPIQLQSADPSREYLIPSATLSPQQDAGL

B1: 83A9B8 (antibody, V domains shown)
VH: EVQLQQSGPELVKPGASVKMSCKASGYTFSNYVIHWVKQKPGQGLEWIGYFNPYNDGSKYNEKFKGKATLTSDKSSSTAYMELSSLTSEDSAVYYCARGGVRRYFDVWGAGTTVTVSS
VL: DIQMTQSPSSLSASLGERVSLTCRASQDIGDNLNWLQQEPDGTIKRLIYATFSLDSGVPKRFSGSRSGSVYSLTISRLESEDFVDYFCLHYASFPYTFGGGTKLEIK
notes: Mouse monoclonal antibody from hybridoma subclone
B2: 116F1G6 (antibody, V domains shown)
VH: B1 VH with Q6H, S30T, N31T, I34M, F51I, S58T
VL: B1 VL with D31S, D41N, S53T, V70D, R77S, F87Y, H90Q
notes: as for B1
B3: 116G1G4 (antibody, V domains shown)
VH: EVQLQQSGPELVKPGASVKMSCKASGYTFTYYIMHWVKQEPGQGLQWIGYINPYNDGAYYSARFKGKATLTSDKSSSTAYMDLTSLTSEDSAVYYCARGGVRRYFDVWGAGTTVTVSS
VL: DIQMTQSPSSLSASLGERVILTCRASQDIGSNLIWLQQKPDGTIKRLIYATFNLDSGVSKRFSGSRSGSDYSLTISSLDSEDFVDYYCLQYASSPYTFGGGTKLEIK
notes: as for B1
B4: 119E4B4 (antibody, V domains shown)
VH: EVQLQQSGAELVKPGASVKLSCTASGFNIKDTYMHWVKQRPEQGLEWIGRIDPANGNTKYDPKFQGKATITADTSSNTAYLQLSSLTSEDTAVYYCARDYGNYEDYAMDYWGQGTSVTVSS
VL: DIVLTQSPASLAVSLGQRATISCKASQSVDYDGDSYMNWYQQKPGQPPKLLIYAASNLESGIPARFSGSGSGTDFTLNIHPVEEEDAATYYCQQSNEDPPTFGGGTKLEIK
notes: as for B1
B5: ch96C9E7 (antibody, V domains shown)
VH: B1 VH with S30T, N31Y, V33I, I34L, S58N, Y60F, K63R, K65R, S84N, Y95F
VL: B1 VL with D31S, Y49S, V70D, R77S, D85N, F87Y, H90Q
B6: ch83A9B8 (antibody, V domains shown)
VH: B1 VH
VL: B1 VL
B7: ch116F1G6 (antibody, V domains shown)
VH: B1 VH with Q6H, S30T, N31T, I34M, F51I, S58T
VL: B1 VL with D31S, D41N, S53T, V70D, R77S, F87Y, H90Q
B8: ch98A3A8 (antibody, V domains shown)
VH: B1 VH with S30T, N31Y, I34T, K38R, F51I, S58T, K59M, Y60F, L83F, Y94F
VL: B3 VL with I20S, I34N, F52S, N53S, S59P, S76N, D79E, S94F
B9: ch20C4E1 (antibody, V domains shown)
VH: EVRLVESGGALVRPGGSLKLSCAASGFTFSDYGMHWVRQAPEKGLEWIAFISSVSFTIYYADTVKGRFTISRDNAKNTLFLQMTSLRSEDTALYYCTRLGPHWYFDVWGTGTTVTVSS
VL: DVVLTQTPLSLPVSLGDQASISCRSSQSLVYSNGNTYLHWFLQKPGQSPQLLIYKVSNRFSGVPDRFSGSGSGTDFTLKISRVEAEDLGVYFCSQSTPVPTFGGGTKLEIK
B10: ch116G1G4 (antibody, V domains shown)
VH: B3 VH
VL: B3 VL
B11: ch36A3G8 (antibody, V domains shown)
VH: QVQLQQSGAELARPGASVKMSCKASGYTFTTYTMHWIKQRPGQDLEWIGFINPSSGYTKYNQNFKDKATLTADKSSTTAYMQLNSLTSEDSAVYYCASPYGNIYFDVWGTGTTVTVSS
VL: DIVMTQSQKFMSTAVGDRVSITCKASQNVGTAVAWYQQKPGQSPKLLIYSASNRYTGVPDRFTGSGSGTDFTLTISNMQSEDLADYFCQQYSSYPLTFGAGTKLELK
B12: ch15D6G2 (antibody, V domains shown)
VH: EVQLVESGGDLVKPGGYLRLSCAASGFTFSSHGMSWVRQTPDKRLEWVATISSGGRNTYYPDSVKGRFTISRDNAKNILYLQMSSLKSEDTAMFYCTRHSGDAMDYWGQGTSVTVSS
VL: DILLTQSPAILSVSPGERVSFSCRASQSIGTNIHWYQQRTNGSPRLLIKYASESISGIPSRFSGSGSGTDFTLSINSVESEDIADYYCQQSKSWPTFGGGTKLEIK
B13: ch12G12C2 (antibody, V domains shown)
VH: QIQLVQSGPELKMPGETVKISCKASGYTFTTYGLSWVKQAPGKGLKWMGWINTFSGVPIYADDFKGRFAFSLETSASTAYLQINNLKNEDTATYFCARWGIRQRGDYWGQGATLTVSS
VL: QIVLTQSPAIMSASPGEKVTMTCSASSSVSYLHWYQQKSGTSPKRWIYDTSKLASGVPVRFSGSGSETSYSLTISSMEAEDAATYYCQQWTSNPPTFGGGTKLEIK
B14: ch26E2H6 (antibody, V domains shown)
VH: EVQLVESGGDLVKPGGSLKLSCAASGFTFSSYGMSWVRQTPDKRLEWVATISSGGSYTYYPDSVKGRFTISRDNAKNTLYLQMSSLKSEDTAMYYCARHATDYWGQGTTLTVSS
VL: B13 VL with L32M, V59A, E67G, T91S, P95L, G99A, I105L
B15: ch28H9C12 (antibody, V domains shown)
VH: EVQLVESGGGLVKPGGSLKLSCAASGFTFSDYGMHWVRQAPEKGLEWVAYISSGSSTIYYADTVKGRFTISRDNAKNTLFLQMTSLRSEDTAIYYCVRRPWYFDVWGTGTTVTVSS
VL: DVLMTQTPLSLPVSLGDQASISCRSSQSIVHSNGNTYLQWYLQKPGQSPKLLIYKVSNRFSGVPDRFSGSGSGTDFTLKISRLEAEDLGVYYCFQGSHVPFTFGSGTKLEIK
B16: ch82A1C10 (antibody, V domains shown)
VH: QVQLKESGPGLVAPSQSLSITCTVSGFSLTNYAVTWVRQPPGKGLEWLGVIWGDGSTYYHSALVSRLSITKDNSRTQVLLKLNSLQTDDTARYYCAKGGYSPFAYWGQGTLVTVSA
VL: B15 VL with L3V, I29L, Q39H, Y54F, L83V, Y92F, F94S, G96N, S97T

What follows are binders tested against T2, human GPRC5D (human, UniProt Q9NZD1 1-345) (assay: FACS, OPM-2 cells).
T2 construct: whole, on cells; also called hGPRC5D; G-protein coupled receptor family C group 5 member D
Text: (§1) The subcloning plates were screened by Mirrorball assay and the subclones with good binding ability were expanded to 24-wells for confirmation tests. The specificity and cross-reactivity of these subclones were confirmed with FACS analysis. Briefly, parental HEK293T, HEK293T cells stably over-expressing human GPRC5D protein (i.e., HEK293T-hGPRC5D), HEK293T cells stably over-expressing cynomolgus monkey GPRC5D protein (i.e., HEK293T-cynoGPRC5D), HEK293T cells stably over-expressing mouse GPRC5D protein (i.e., HEK293T-mGPRC5D), and OPM2 cells were incubated with antibodies produced by each subclone, respectively. Fluorescent dye-conjugated secondary antibody was used to detect the binding of the primary antibody with the cells. Median fluorescence intensity (MFI) was measured by FACS analysis,
(§2) As a result, 21 antibodies were discovered with unique sequences showing positive binding with HEK293T-hGPRC5D and OPM2 cells. Among which, some clones could also bind with HEK293T-cynoGPRC5D and/or HEK293T-mGPRC5D. […] ATG596 was a positive human IgG1 control antibody which comprises a VH region having an amino acid sequence as set forth in SEQ ID NO: 199, and a VL region having an amino acid sequence as set forth in SEQ ID NO: 200.

T2 sequence (Q9NZD1 whole entry): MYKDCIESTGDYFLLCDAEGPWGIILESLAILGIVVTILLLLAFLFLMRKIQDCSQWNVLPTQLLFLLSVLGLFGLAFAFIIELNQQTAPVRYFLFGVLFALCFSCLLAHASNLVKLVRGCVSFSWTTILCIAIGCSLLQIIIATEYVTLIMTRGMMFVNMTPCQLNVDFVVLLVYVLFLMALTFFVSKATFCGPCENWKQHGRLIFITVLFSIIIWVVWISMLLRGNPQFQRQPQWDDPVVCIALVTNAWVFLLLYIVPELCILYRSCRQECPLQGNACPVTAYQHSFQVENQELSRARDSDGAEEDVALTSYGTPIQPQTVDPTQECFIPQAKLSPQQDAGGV

| % Positive | MFI | Binder |
| --- | --- | --- |
| 98.3% | 824 | B1 |
| 98.4% | 1040 | B2 |
| 97.4% | 706 | B3 |
| 98.6% | 867 | B4 |

The binders below were run against T2, human GPRC5D (assay: FACS, CHOS-hGPRC5D cells).

| EC50 | Top | Binder |
| --- | --- | --- |
| 1.97 nM | 2830 | B5 |
| 0.4 nM | 1840 | B6 |
| 0.863 nM | 1170 | B7 |
| 1.39 nM | 2970 | B8 |
| 2.83 nM | 4110 | B9 |
| 0.686 nM | 2240 | B10 |
| 2.64 nM | 2780 | B11 |
| 1.27 nM | 4080 | B12 |
| 4.06 nM | 3120 | B13 |
| 3.02 nM | 2910 | B14 |
| 2.83 nM | 3960 | B15 |
| 2.76 nM | 2680 | B16 |

These binders were tested against T2, human GPRC5D (assay: FACS, HEK293T-hGPRC5D cells).
Text: as §1, §2

| % Positive | MFI | Binder |
| --- | --- | --- |
| 94.1% | 4930 | B1 |
| 96.2% | 42800 | B2 |
| 94.4% | 6050 | B3 |
| 88.2% | 3240 | B4 |

These binders were tested against T1, mouse GPRC5D (assay: FACS, HEK293T-mGPRC5D cells).

| EC50 | Top | Binder |
| --- | --- | --- |
| 18.5 nM | 19200 | B5 |
| 69.6 nM | 26000 | B8 |
| 3940 nM | 5.06e+06 | B9 |
| 592 nM | 648000 | B12 |
| 995 nM | 1.48e+06 | B13 |
| 184 nM | 45700 | B14 |
| 110 nM | 26500 | B15 |

What follows are binders tested against T3, cynomolgus monkey GPRC5D (cynomolgus monkey) (assay: FACS, HEK293T-cynoGPRC5D cells).
T3 construct: whole, on cells; HEK293T-cynoGPRC5D cells; also called cynoGPRC5D
Text: as §1, §2

| % Positive | MFI | Binder |
| --- | --- | --- |
| 55.7% | 278 | B1 |
| 41.4% | 82.6 | B2 |
| 59.8% | 344 | B3 |
| 69.6% | 709 | B4 |

Molecular target: T3, cynomolgus monkey GPRC5D
Assay: FACS, HEK293T-cynoGPRC5D cells
Remark: another data set of the same source

| EC50 | Top | Binder |
| --- | --- | --- |
| 8.25 nM | 34300 | B5 |
| 9.78 nM | 46800 | B8 |
| 11.5 nM | 45800 | B9 |
| 19.3 nM | 123000 | B12 |
| 5.94 nM | 28200 | B13 |
| 40.4 nM | 51300 | B14 |
| 14.8 nM | 65900 | B15 |
